Drawing on publication PMC5072174, this text covers Kd for three substances.

A value given as a limit tells only on which side of the number the result lay.

The experiment concerns the target fluorescein-conjugated N-terminal histone H3 peptide with trimethylation at the K9 position (UniProt P68431). In words: fluorescence polarisation.

“Mpp8 chromodomain with F59 replaced by 3,4,5-trifluorophenylalanine (from UniProt Q99549 55-116) (domain or fragment)”: the Kd was above 100 µM. Next, “Mpp8 chromodomain with F59 replaced by 3,5-difluorophenylalanine (from UniProt Q99549 55-116) (domain or fragment)”: 12 µM; “Mpp8 chromodomain with F59 replaced by pentafluoro-phenylalanine (from UniProt Q99549 55-116) (domain or fragment)”: above 200 µM.
